Experimental data as given in patent publication US20230312678A1.
Like-named read-outs stand apart in the source and are kept apart here.

Legend:
[1] = target: ED-tagged full-length PD-1 receptor stably expressed in Jurkat cells (PathHunter PD-1 Signaling Bioassay, DiscoverX) (UniProt Q15116); test: cell-based or functional assay
[2] = target: ED-tagged full-length PD-1 receptor stably expressed in Jurkat cells (PathHunter PD-1 Signaling Bioassay, DiscoverX) (UniProt Q15116); test: cell-based or functional assay; remark: listed apart in the source

UniProt Q15116, sequence (Q15116 25-288): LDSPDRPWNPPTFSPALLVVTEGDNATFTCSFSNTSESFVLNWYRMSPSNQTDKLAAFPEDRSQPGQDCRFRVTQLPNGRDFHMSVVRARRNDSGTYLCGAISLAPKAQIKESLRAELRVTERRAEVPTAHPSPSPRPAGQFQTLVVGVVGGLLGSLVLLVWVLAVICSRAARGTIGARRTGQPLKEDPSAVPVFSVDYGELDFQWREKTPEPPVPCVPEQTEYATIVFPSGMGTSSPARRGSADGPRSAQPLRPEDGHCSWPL

Relative Light Units (RLU), modified PathHunter PD-1 Signaling Bioassay; fold against soluble PD-L2-Fc [1] | Relative Light Units (RLU), modified PathHunter PD-1 Signaling Bioassay; fold against soluble PD-L2-Fc [2] | Relative Light Units (RLU), modified PathHunter PD-1 Signaling Bioassay; fold against soluble PD-L1-Fc [1] | Relative Light Units (RLU), modified PathHunter PD-1 Signaling Bioassay; fold against soluble PD-L1-Fc [2] | Substance
1000 fold | 10000 fold | – | – | hPD-L2-Fc-GPI artificial synapses engineered from exosomes (hPDL2-Fc-GPI fusion polypeptide displayed on the exosome surface) (Fc fusion)
– | – | 1000 fold | 10000 fold | hPD-L1-Fc-GPI artificial synapses engineered from exosomes (hPDL1-Fc-GPI fusion polypeptide displayed on the exosome surface) (Fc fusion)
